Reference: PMC9977175
pKd: −log10 of the molar value.

Assays:
[1] = target: SUMO-tagged WIPI2b^Δ (residues 13 to 362 without 265 to 297) (human); assay: SEC-MALS
[2] = target: SUMO-tagged WIPI2b^Δ (residues 13 to 362 without 265 to 297) (human); assay: ITC

Chain of Trx-tagged ATG16L1(78 to 247) (Q676U5 78-247): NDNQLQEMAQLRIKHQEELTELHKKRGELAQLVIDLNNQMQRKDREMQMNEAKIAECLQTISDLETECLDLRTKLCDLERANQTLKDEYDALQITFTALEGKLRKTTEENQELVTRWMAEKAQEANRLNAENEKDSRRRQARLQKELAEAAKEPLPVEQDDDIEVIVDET
Chain of ATG16L1(124 to 247) (Q676U5 124-247): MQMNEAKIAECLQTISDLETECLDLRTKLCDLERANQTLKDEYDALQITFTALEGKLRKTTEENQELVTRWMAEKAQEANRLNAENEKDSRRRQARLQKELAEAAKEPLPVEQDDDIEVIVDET
Chain of Trx-tagged ATG16L1(207 to 247) (Q676U5 207-247): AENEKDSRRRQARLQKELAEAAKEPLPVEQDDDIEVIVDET
Chain of Trx-tagged ATG16L1(78 to 206) (Q676U5 78-206): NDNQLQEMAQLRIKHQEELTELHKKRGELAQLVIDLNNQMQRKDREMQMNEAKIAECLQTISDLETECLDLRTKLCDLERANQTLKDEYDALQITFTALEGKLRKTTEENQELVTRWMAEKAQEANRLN

ATG16L1(124 to 247) (from UniProt Q676U5 124-247) (domain or fragment)
stoichiometry N (ATG16L1 chains per WIPI2b^Δ (2:2)) [1]: 1

Trx-tagged ATG16L1(78 to 206) (from UniProt Q676U5 78-206) (domain or fragment)
pKd [2]: 5.16

Trx-tagged ATG16L1(78 to 247) (from UniProt Q676U5 78-247) (domain or fragment)
KD of the WBS1 site (two-site fit) [2]: 2.88 µM | KD of the WBS2 site (two-site fit) [2]: 0.41 µM

Trx-tagged ATG16L1(207 to 247) (from UniProt Q676U5 207-247) (domain or fragment)
pKd [2]: 5.41
